In the supplement of paper PMC9112550, “Optimization of the antimicrobial peptide Bac7 by deep mutational scanning” (BMC Biology, 2022):

System: Escherichia coli TOP10
Assay: shrunken log2 fold change of peptide-encoding DNA abundance (4.5 h post-induction vs induction); higher = less antimicrobial activity (less host growth inhibition)
Conditions: time post-induction: 4.5 h; library: site-saturation at positions 5, 18, 19, 20
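Also: peptides expressed intracellularly from a pBAD plasmid library in pooled LB shake-flask culture, induced with 0.3% L-arabinose, DNA abundance read by NGS, three biological replicates, DESeq2 with apeglm shrinkage.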

RRIRNRPPRLPRPRPRPWSGPRP
shrunken log2 fold change: -0.173

RRIRNRPPRLPRPRPRPWSIPRP
shrunken log2 fold change: -0.16

RRIRNRPPRLPRPRPRPWSLPRP
shrunken log2 fold change: -0.0288

RRIRNRPPRLPRPRPRPWVFPRP
shrunken log2 fold change: -0.221

RRIRNRPPRLPRPRPRPWVNPRP
shrunken log2 fold change: -0.00663

RRIRNRPPRLPRPRPRPWVYPRP
shrunken log2 fold change: -0.0702

RRIRNRPPRLPRPRPRPWYTPRP
shrunken log2 fold change: 0.0349

RRIRNRPPRLPRPRPRPYAPPRP
shrunken log2 fold change: -0.702

RRIRNRPPRLPRPRPRPYAQPRP
shrunken log2 fold change: -0.55

RRIRNRPPRLPRPRPRPYAVPRP
shrunken log2 fold change: -0.0739

RRIRNRPPRLPRPRPRPYCAPRP
shrunken log2 fold change: -1.05

RRIRNRPPRLPRPRPRPYCCPRP
shrunken log2 fold change: -0.564

RRIRNRPPRLPRPRPRPYDWPRP
shrunken log2 fold change: 0.0127

RRIRNRPPRLPRPRPRPYFQPRP
shrunken log2 fold change: -0.317

RRIRNRPPRLPRPRPRPYHSPRP
shrunken log2 fold change: -0.654

RRIRNRPPRLPRPRPRPYIGPRP
shrunken log2 fold change: 0.0261

RRIRNRPPRLPRPRPRPYKIPRP
shrunken log2 fold change: -0.0214

RRIRNRPPRLPRPRPRPYKKPRP
shrunken log2 fold change: -0.00559

RRIRNRPPRLPRPRPRPYPKPRP
shrunken log2 fold change: 0.0245

RRIRNRPPRLPRPRPRPYPQPRP
shrunken log2 fold change: -0.138

RRIRNRPPRLPRPRPRPYRQPRP
shrunken log2 fold change: -0.01

RRIRNRPPRLPRPRPRPYRWPRP
shrunken log2 fold change: -0.147

RRIRNRPPRLPRPRPRPYSIPRP
shrunken log2 fold change: -0.534

RRIRNRPPRLPRPRPRPYSMPRP
shrunken log2 fold change: -0.292

RRIRNRPPRLPRPRPRPYTSPRP
shrunken log2 fold change: -0.325

RRIRNRPPRLPRPRPRPYVNPRP
shrunken log2 fold change: -0.121

RRIRNRPPRLPRPRPRPYWQPRP
shrunken log2 fold change: -0.215

RRIRNRPPRLPRPRPRPYYLPRP
shrunken log2 fold change: -0.673

RRIRPRPPRLPRPRPRPACHPRP
shrunken log2 fold change: 0.111

RRIRPRPPRLPRPRPRPACRPRP
shrunken log2 fold change: 0.183

RRIRPRPPRLPRPRPRPADAPRP
shrunken log2 fold change: 0.29

RRIRPRPPRLPRPRPRPADNPRP
shrunken log2 fold change: -0.428

RRIRPRPPRLPRPRPRPAEVPRP
shrunken log2 fold change: -0.0315

RRIRPRPPRLPRPRPRPAFWPRP
shrunken log2 fold change: 0.459

RRIRPRPPRLPRPRPRPAGAPRP
shrunken log2 fold change: 0.309

RRIRPRPPRLPRPRPRPAGGPRP
shrunken log2 fold change: 0.269

RRIRPRPPRLPRPRPRPAHMPRP
shrunken log2 fold change: -0.0534

RRIRPRPPRLPRPRPRPAIMPRP
shrunken log2 fold change: -0.00756

RRIRPRPPRLPRPRPRPALPPRP
shrunken log2 fold change: 1.63

RRIRPRPPRLPRPRPRPALVPRP
shrunken log2 fold change: 0.181

RRIRPRPPRLPRPRPRPAMAPRP
shrunken log2 fold change: 0.388

RRIRPRPPRLPRPRPRPAMKPRP
shrunken log2 fold change: 0.162

RRIRPRPPRLPRPRPRPANHPRP
shrunken log2 fold change: -0.0982

RRIRPRPPRLPRPRPRPANMPRP
shrunken log2 fold change: -0.219

RRIRPRPPRLPRPRPRPANWPRP
shrunken log2 fold change: 0.22

RRIRPRPPRLPRPRPRPAPWPRP
shrunken log2 fold change: 0.436

RRIRPRPPRLPRPRPRPAQMPRP
shrunken log2 fold change: 0.181

RRIRPRPPRLPRPRPRPAQPPRP
shrunken log2 fold change: 0.732

RRIRPRPPRLPRPRPRPARAPRP
shrunken log2 fold change: 0.438

RRIRPRPPRLPRPRPRPARCPRP
shrunken log2 fold change: 0.67

RRIRPRPPRLPRPRPRPATCPRP
shrunken log2 fold change: 1.55

RRIRPRPPRLPRPRPRPATDPRP
shrunken log2 fold change: 0.00951

RRIRPRPPRLPRPRPRPATGPRP
shrunken log2 fold change: 0.0771

RRIRPRPPRLPRPRPRPATKPRP
shrunken log2 fold change: 0.29

RRIRPRPPRLPRPRPRPAVGPRP
shrunken log2 fold change: 0.414

RRIRPRPPRLPRPRPRPAVKPRP
shrunken log2 fold change: 0.171

RRIRPRPPRLPRPRPRPAVMPRP
shrunken log2 fold change: 0.215

RRIRPRPPRLPRPRPRPAWAPRP
shrunken log2 fold change: 0.45

RRIRPRPPRLPRPRPRPAWPPRP
shrunken log2 fold change: 0.6

RRIRPRPPRLPRPRPRPAYCPRP
shrunken log2 fold change: -0.215

RRIRPRPPRLPRPRPRPAYDPRP
shrunken log2 fold change: -0.26

RRIRPRPPRLPRPRPRPCAYPRP
shrunken log2 fold change: -0.311

RRIRPRPPRLPRPRPRPCCHPRP
shrunken log2 fold change: 0.0505

RRIRPRPPRLPRPRPRPCCMPRP
shrunken log2 fold change: -0.144

RRIRPRPPRLPRPRPRPCDAPRP
shrunken log2 fold change: 0.375

RRIRPRPPRLPRPRPRPCDVPRP
shrunken log2 fold change: -0.155

RRIRPRPPRLPRPRPRPCGGPRP
shrunken log2 fold change: 0.224

RRIRPRPPRLPRPRPRPCKEPRP
shrunken log2 fold change: -0.0274

RRIRPRPPRLPRPRPRPCLLPRP
shrunken log2 fold change: -0.258

RRIRPRPPRLPRPRPRPCLRPRP
shrunken log2 fold change: -0.183

RRIRPRPPRLPRPRPRPCMYPRP
shrunken log2 fold change: -0.226

RRIRPRPPRLPRPRPRPCPCPRP
shrunken log2 fold change: -0.481

RRIRPRPPRLPRPRPRPCPYPRP
shrunken log2 fold change: -1.08

RRIRPRPPRLPRPRPRPCQSPRP
shrunken log2 fold change: -0.123

RRIRPRPPRLPRPRPRPCQYPRP
shrunken log2 fold change: 0.0594

RRIRPRPPRLPRPRPRPCRSPRP
shrunken log2 fold change: -0.136

RRIRPRPPRLPRPRPRPCSEPRP
shrunken log2 fold change: -0.00276

RRIRPRPPRLPRPRPRPCTDPRP
shrunken log2 fold change: -0.0332

RRIRPRPPRLPRPRPRPCTSPRP
shrunken log2 fold change: -0.0721

RRIRPRPPRLPRPRPRPCVAPRP
shrunken log2 fold change: 0.51

RRIRPRPPRLPRPRPRPCVLPRP
shrunken log2 fold change: -0.0304

RRIRPRPPRLPRPRPRPCVPPRP
shrunken log2 fold change: -0.134

RRIRPRPPRLPRPRPRPCWKPRP
shrunken log2 fold change: -0.0855

RRIRPRPPRLPRPRPRPCYCPRP
shrunken log2 fold change: -0.722

RRIRPRPPRLPRPRPRPCYVPRP
shrunken log2 fold change: -0.469

RRIRPRPPRLPRPRPRPDASPRP
shrunken log2 fold change: 0.37

RRIRPRPPRLPRPRPRPDDPPRP
shrunken log2 fold change: -0.0693

RRIRPRPPRLPRPRPRPDDWPRP
shrunken log2 fold change: 0.247

RRIRPRPPRLPRPRPRPDEEPRP
shrunken log2 fold change: 0.0245

RRIRPRPPRLPRPRPRPDFQPRP
shrunken log2 fold change: 0.262

RRIRPRPPRLPRPRPRPDGNPRP
shrunken log2 fold change: 0.0274

RRIRPRPPRLPRPRPRPDHDPRP
shrunken log2 fold change: -0.306

RRIRPRPPRLPRPRPRPDILPRP
shrunken log2 fold change: -0.51

RRIRPRPPRLPRPRPRPDKKPRP
shrunken log2 fold change: -0.429

RRIRPRPPRLPRPRPRPDKRPRP
shrunken log2 fold change: 0.00792

RRIRPRPPRLPRPRPRPDLCPRP
shrunken log2 fold change: -0.0739

RRIRPRPPRLPRPRPRPDMIPRP
shrunken log2 fold change: 0.249

RRIRPRPPRLPRPRPRPDNCPRP
shrunken log2 fold change: -0.197

RRIRPRPPRLPRPRPRPDNFPRP
shrunken log2 fold change: -1.15

RRIRPRPPRLPRPRPRPDNLPRP
shrunken log2 fold change: -0.35

RRIRPRPPRLPRPRPRPDRCPRP
shrunken log2 fold change: 0.584

RRIRPRPPRLPRPRPRPDSDPRP
shrunken log2 fold change: 0.0303

RRIRPRPPRLPRPRPRPDTCPRP
shrunken log2 fold change: -0.594

RRIRPRPPRLPRPRPRPDWFPRP
shrunken log2 fold change: 0.0805

RRIRPRPPRLPRPRPRPDWKPRP
shrunken log2 fold change: 0.286

RRIRPRPPRLPRPRPRPDWMPRP
shrunken log2 fold change: -0.212

RRIRPRPPRLPRPRPRPDWRPRP
shrunken log2 fold change: 0.321

RRIRPRPPRLPRPRPRPDYCPRP
shrunken log2 fold change: -0.367

RRIRPRPPRLPRPRPRPDYGPRP
shrunken log2 fold change: 0.014
